Results on three molecules are retold here after patent US20110171259A1 (priority 2008, published 2011).

For assay [1], the system named is SFV (A/New Calcdonia/20/99). Description: Influenza-specific serum IgG ELISA after nasal instillation of SFV with Lip peptide MC58. The assay is classed as in vivo, C57BL/6 mice. To be noted: 3 μg SFV + 10 μg peptide nasally Day 0 and Day 14, sera Day 28, versus SFV alone; FIG. 6. The method, then: On day 28, mice were euthanized and exsanguinated by cardiac puncture. Influenza-specific IgG levels were measured in sera collected at Day 28 by ELISA using (A/New Calcdonia/20/99) SFV as solid-phase antigen.

A further assay addresses human TLR 1 and 2 (Homo sapiens, UniProt O60603+Q15399). The assay is described as follows: NF-κB SEAP reporter assay in HEK293 cells expressing TLR 1 and 2. The settings on record: TLR1/2-expressing HEK293 cells; 0, 0.01, 0.1, 1.0 μg; 5 hours exposure; FIG. 3; listed as Lip peptide lipidated MC58. (A reporter such as luciferase makes a cellular process visible.)
For another assay, the target named is T1, Toll-Like Receptor 2 (Homo sapiens, UniProt O60603+Q15399).
T1 construct: host or cells: epithelial cells
T1 sequence (O60603 21-784, species assumed): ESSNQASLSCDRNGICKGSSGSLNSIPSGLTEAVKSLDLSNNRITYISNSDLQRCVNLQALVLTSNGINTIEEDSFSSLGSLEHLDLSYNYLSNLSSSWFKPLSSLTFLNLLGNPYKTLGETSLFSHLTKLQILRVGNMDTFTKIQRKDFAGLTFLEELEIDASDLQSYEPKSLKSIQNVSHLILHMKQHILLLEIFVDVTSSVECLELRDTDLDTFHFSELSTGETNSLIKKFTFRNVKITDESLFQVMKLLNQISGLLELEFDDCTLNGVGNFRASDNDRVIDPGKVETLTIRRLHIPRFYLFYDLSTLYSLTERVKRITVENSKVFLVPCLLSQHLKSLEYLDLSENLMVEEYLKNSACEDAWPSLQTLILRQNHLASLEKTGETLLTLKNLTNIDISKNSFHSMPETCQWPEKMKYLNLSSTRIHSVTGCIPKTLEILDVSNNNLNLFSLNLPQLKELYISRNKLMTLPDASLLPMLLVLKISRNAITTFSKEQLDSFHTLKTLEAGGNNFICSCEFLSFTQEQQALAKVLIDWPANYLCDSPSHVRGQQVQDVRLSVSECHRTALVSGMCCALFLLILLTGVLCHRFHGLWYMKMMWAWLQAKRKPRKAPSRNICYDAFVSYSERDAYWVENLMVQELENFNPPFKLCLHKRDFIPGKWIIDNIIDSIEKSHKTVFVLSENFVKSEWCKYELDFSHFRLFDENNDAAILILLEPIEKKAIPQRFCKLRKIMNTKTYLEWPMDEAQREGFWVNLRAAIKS
T1 sequence (Q15399 25-786, species assumed): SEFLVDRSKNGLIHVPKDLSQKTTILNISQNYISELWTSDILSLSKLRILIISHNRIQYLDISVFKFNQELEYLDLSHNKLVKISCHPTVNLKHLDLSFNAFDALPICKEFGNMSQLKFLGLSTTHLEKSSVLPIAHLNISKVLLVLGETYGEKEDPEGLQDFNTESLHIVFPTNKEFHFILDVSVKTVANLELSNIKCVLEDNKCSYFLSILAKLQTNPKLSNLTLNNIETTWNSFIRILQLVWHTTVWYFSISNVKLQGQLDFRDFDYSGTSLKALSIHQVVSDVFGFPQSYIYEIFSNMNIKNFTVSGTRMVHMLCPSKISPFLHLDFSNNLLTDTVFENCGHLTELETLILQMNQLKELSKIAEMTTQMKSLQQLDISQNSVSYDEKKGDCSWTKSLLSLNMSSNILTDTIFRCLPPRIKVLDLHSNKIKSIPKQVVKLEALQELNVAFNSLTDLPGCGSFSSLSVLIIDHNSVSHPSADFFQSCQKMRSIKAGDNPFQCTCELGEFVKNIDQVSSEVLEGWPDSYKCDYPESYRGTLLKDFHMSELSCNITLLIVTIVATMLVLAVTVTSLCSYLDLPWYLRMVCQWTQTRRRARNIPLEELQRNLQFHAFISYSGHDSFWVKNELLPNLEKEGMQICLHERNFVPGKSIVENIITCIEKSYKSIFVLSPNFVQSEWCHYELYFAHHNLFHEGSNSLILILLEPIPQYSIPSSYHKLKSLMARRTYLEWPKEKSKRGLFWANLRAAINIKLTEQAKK
The settings on record: Fisette et al., 2003; cited from earlier work.

A further assay deals with split-flu vaccine (SFV). The assay is classed as in vivo, C57BL/6 mice. The settings on record: 3 μg SFV + 0.35 μg or 1.0 μg Lip protein nasally Day 0 and Day 14, Day 28 sera, versus SFV alone; batch 1 and batch 2; FIG. 7 and 8.
The target of another assay is TLR4/MD2/CD14 (Homo sapiens, UniProt O00206). The assay is described as follows: NF-κB SEAP reporter assay in HEK293 cells expressing TLR4/MD2/CD14. The settings on record: FIG. 5.
Sequence of TLR4/MD2/CD14 (O00206 24-839): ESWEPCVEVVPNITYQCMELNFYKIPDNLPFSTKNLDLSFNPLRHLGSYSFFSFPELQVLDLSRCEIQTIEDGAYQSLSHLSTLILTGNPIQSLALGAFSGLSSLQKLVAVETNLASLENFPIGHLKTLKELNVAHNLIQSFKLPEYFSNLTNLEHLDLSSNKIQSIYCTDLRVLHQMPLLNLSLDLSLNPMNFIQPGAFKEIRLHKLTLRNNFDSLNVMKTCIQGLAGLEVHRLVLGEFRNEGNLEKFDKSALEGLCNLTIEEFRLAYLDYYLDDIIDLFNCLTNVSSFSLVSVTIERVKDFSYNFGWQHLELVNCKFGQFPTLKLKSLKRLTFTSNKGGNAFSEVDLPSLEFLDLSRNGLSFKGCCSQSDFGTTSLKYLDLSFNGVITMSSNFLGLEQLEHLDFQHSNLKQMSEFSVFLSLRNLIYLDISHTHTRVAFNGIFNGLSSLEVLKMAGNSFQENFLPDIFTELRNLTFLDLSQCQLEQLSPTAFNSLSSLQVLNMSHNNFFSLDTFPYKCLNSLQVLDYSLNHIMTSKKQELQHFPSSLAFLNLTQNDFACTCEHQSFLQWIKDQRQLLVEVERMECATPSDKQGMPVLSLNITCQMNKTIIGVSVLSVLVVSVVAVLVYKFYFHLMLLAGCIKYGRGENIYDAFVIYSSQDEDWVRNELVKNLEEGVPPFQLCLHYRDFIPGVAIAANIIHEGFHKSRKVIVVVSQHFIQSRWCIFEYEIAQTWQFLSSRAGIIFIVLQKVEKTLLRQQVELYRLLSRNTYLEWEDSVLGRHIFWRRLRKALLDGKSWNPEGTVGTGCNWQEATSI
Sequence of TLR4/MD2/CD14 (Q9Y6Y9 19-160 partner): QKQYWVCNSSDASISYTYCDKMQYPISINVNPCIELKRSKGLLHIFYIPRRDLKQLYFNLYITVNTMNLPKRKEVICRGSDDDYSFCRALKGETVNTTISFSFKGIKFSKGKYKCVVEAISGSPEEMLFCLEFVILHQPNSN

Entries after “also recorded” stand apart in the source; their conditions may differ. Ends that are not written are not given here.

Sequence of human TLR 1 and 2 (O60603 21-784): as the sequence (O60603 21-784, species assumed) above
Sequence of human TLR 1 and 2 (Q15399 25-786): as the sequence (Q15399 25-786, species assumed) above

Take “Pam3Cys-GGEKAAEAPAAEAP [Lip peptide MC58]”: the “serum influenza-specific IgG levels” value in assay [1] is on record as “statistically significant higher levels”. For the same molecule, the “NF-κB activation (relative 650 nm optic density, SEAP)” value with human TLR 1 and 2 was “mainly TLR1 and 2 agonists”. In the case of “Pam3Cys-GGEKAAEAPAAEAS [Lip peptide F62, triacylated Lip peptide from N. gonorrhoeae F62]”, in the assay with Toll-Like Receptor 2, the “production of inflammatory cytokines” value was “can stimulate”.

B1: Lip protein: Lip protein purified from Neisseria meningitidis (strain 8047) Proteosome preparation (protein)
chain: MKAYLALISAAVIGLAACSQEPAAPAAEATPAAEAPASEAPAAEAAPADAAEAPAAGNCAATVESNDNMQFNTKDIQVSKACKEFTITLKHTGTQPKTSMGHNIVIGKTEDMDGIFKDGVGAADTDYVKPDDARVVAHTKLIGGGEESSLTLDPAKLADGDYKFACTFPGHGALMNGKITLVD
modifications: N.meningitidis
notes: Lip protein purified from Neisseria meningitidis (strain 8047) Proteosome preparation
Regarding B1, in the assay on split-flu vaccine (SFV), the “antigen-specific IgG levels in sera” value was “statistically significant (p<0.001 and p<0.01) higher levels; also recorded: significantly higher than the SFV alone”. For the same molecule, the NF-κB activation entry in the assay with TLR4/MD2/CD14 was “no significant increase”.
